± gives the uncertainty stated by the source.
Assay: protein stability index of a GFP-peptide fusion (yeast GPS) (PSI 1-4); higher = more stable; sorted into four equal gates, so the index is relative within each strain
Procedure, shortened: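 Each library plasmid carries Cherry plus GFP with a tiled 17-residue yeast protein peptide fused downstream, and the pooled library was carried in yeast. Mid-log cultures in leucine-free medium were sorted into four equal gates by GFP/Cherry ratio. Reads from Illumina sequencing of PCR-amplified plasmids from each gate were assigned to strains by barcodes. Per peptide, the protein stability index was computed as the summed products of gate read frequency and gate number.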

| Sequence | protein stability index (doa10∆) | protein stability index (pdr5∆) | protein stability index (san1∆) | protein stability index (ubr1∆) |
| --- | --- | --- | --- | --- |
| RQLQYETLGDILKRDFE [ECM29] | 2.92 ± 0.075 | 3.36 ± 0.099 | 2.76 ± 0.095 | 3.02 ± 0.087 |
| FQEGVVVAKKDFNQAKH [RPS10A] | 2.1 ± 0.27 | 2.92 ± 0.27 | 2.91 ± 0.16 | 2.79 ± 0.12 |
| PSEIPDAHKAEQEDIIE [SWI3] |  | 3.29 ± 0.14 | 3.46 ± 0.12 | 3.05 ± 0.17 |
| IIERYIKSKADAWVSAA [PRP8] | 1.86 ± 0.082 | 1.88 ± 0.072 | 2.39 ± 0.11 | 2.09 ± 0.12 |
| PPQQTYHFPIFNKYADP [RPN4] | 2.52 ± 0.046 | 2.8 ± 0.042 | 2.59 ± 0.034 | 2.65 ± 0.03 |
| KPWFATVNGQARDLATM [FAS1] | 3.01 ± 0.11 | 3.08 ± 0.1 | 3 ± 0.083 | 3.05 ± 0.064 |
| NGILPDDELMNWRRLSG [SSN2] | 2.97 ± 0.087 | 2.9 ± 0.073 | 2.98 ± 0.11 | 3.19 ± 0.091 |
| ATGHRVLIFFQMTQIMD [SNF2] | 1.84 ± 0.082 | 2.51 ± 0.069 | 2.72 ± 0.094 | 2.64 ± 0.13 |
| KTLTGKTITLEVESSDT [RPS31] | 2.62 ± 0.048 | 2.73 ± 0.04 | 2.43 ± 0.065 | 1.97 ± 0.034 |
| NEKMQLLKDIFANNLKS [SIR4] | 2.28 ± 0.048 | 2.41 ± 0.051 | 1.95 ± 0.083 | 2.19 ± 0.048 |
| AFNDSCVNLSLFDARFE [SRB8] | 3.11 ± 0.09 | 3.15 ± 0.059 | 3.39 ± 0.091 | 3.14 ± 0.051 |
| LLSQFGIKVLPETCLFV [YML103C/NUP188] | 2.1 ± 0.075 | 1.55 ± 0.058 | 1.18 ± 0.14 | 1.33 ± 0.059 |
| LSKVFSDVLFEFTKINT [YJL039C/NUP192] | 2.87 ± 0.11 | 2.5 ± 0.068 | 2.09 ± 0.13 | 2.94 ± 0.051 |
| ESKDSIQDLIVKLKQQK [SMC3] | 3.35 ± 0.1 | 3.12 ± 0.13 | 3.09 ± 0.14 | 3.35 ± 0.15 |
| RNLQMGLRNQNMVRNNN [GRR1] | 2.62 ± 0.088 | 2.72 ± 0.093 | 2.63 ± 0.063 | 2.54 ± 0.055 |
| KNATEELLRLANEQLKL [CSN12] | 3 ± 0.071 | 2.93 ± 0.058 | 2.89 ± 0.077 | 2.8 ± 0.094 |
| RALFRQLKRWYWQFNGV [RMP1] | 2.29 ± 0.18 | 1.24 ± 0.12 | 1.19 ± 0.18 | 1.34 ± 0.11 |
| KELNEKIQKLEEDDEGE [RPN7] | 1.2 ± 0.11 | 1.61 ± 0.12 | 1.25 ± 0.15 | 1.06 ± 0.08 |
| LIIDEIHLLHDDRGPVL [BRR2] | 2.98 ± 0.1 | 2.98 ± 0.1 | 3.23 ± 0.046 | 2.88 ± 0.099 |
| LNEITNSKVNKLNIETM [DSN1] | 2.81 ± 0.16 | 2.9 ± 0.097 | 2.54 ± 0.077 | 3.08 ± 0.051 |
| VDENDEVLLAGFGRKGK [RPS23A] | 1.08 ± 0.084 | 1.41 ± 0.076 | 1.15 ± 0.11 | 1.24 ± 0.068 |
| VVETITSLLNKVLKSGS [RRP42] | 2.67 ± 0.11 | 2.37 ± 0.067 | 2.54 ± 0.085 | 2.45 ± 0.051 |
| FTNGVLAVTNLLIISCI [YML031W/NDC1] | 1.89 ± 0.18 | 1.85 ± 0.17 | 1.79 ± 0.14 |  |
| NHKIIARVKAFDRHCNM [SMD2] | 1.7 ± 0.07 | 1.72 ± 0.08 | 2.1 ± 0.086 | 1.93 ± 0.058 |
| EQKWLIYDKKDHKYVCT [SRB8] | 2.64 ± 0.29 | 2.33 ± 0.17 |  | 3.23 ± 0.22 |
| KRSDLTGANSIYSVEKK [UBP6] | 3.09 ± 0.12 | 2.8 ± 0.15 | 2.57 ± 0.15 | 3.16 ± 0.056 |
| QTRAKLLDNEIRIFRSE [RPT5] | 3.15 ± 0.12 | 3.37 ± 0.093 | 3.22 ± 0.051 | 2.95 ± 0.056 |

| Sequence | protein stability index (doa10∆) | protein stability index (pdr5∆) | protein stability index (san1∆) | protein stability index (ubr1∆) |
| --- | --- | --- | --- | --- |
| STNESNKSISDEITEDM [SSN2] | 2.5 ± 0.05 | 2.75 ± 0.057 | 2.8 ± 0.05 | 2.98 ± 0.045 |
| LQQAKLRESEISQKLTN [SMC3] | 3.18 ± 0.076 | 3.17 ± 0.073 | 3.15 ± 0.087 | 2.97 ± 0.069 |
| TKSSKEFFNTLRKSRET [RRI2] | 2.63 ± 0.15 | 3.42 ± 0.13 | 3.06 ± 0.074 | 2.92 ± 0.11 |
| KNGNEYNEFLYSKAGRE [QCR8] | 2.77 ± 0.064 | 3 ± 0.081 | 2.77 ± 0.06 | 2.75 ± 0.05 |
| QLNGNETFSTSAHQSPI [SNF2] | 3.31 ± 0.11 | 2.99 ± 0.075 | 3.16 ± 0.072 | 3.22 ± 0.054 |
| KKNSSRPMPPIRGPKRR [SMD3] | 2.23 ± 0.043 | 1.86 ± 0.037 | 2.14 ± 0.055 | 2.81 ± 0.036 |
| IVFDICQILDGELDVLQ [PRP8] | 2.7 ± 0.11 | 2.63 ± 0.11 | 2.39 ± 0.1 | 3.07 ± 0.11 |
| LLICIGTSLKVAPVSEI [SIR2] | 1.91 ± 0.11 | 2.01 ± 0.077 | 2.29 ± 0.18 | 1.79 ± 0.05 |
| LKTRDWIVVLPWFWLLP [POP1] | 1.51 ± 0.12 |  | 1.5 ± 0.23 | 2.02 ± 0.1 |
| SEVANNGLIISWSNGKI [RRP42] | 2.28 ± 0.13 | 1.66 ± 0.054 | 3.03 ± 0.091 | 2.54 ± 0.14 |
| QVRKDLGNVIVPNILSL [NUT1] | 2.23 ± 0.1 | 2.55 ± 0.088 | 2.46 ± 0.093 | 2.62 ± 0.07 |
| GNVLLNATVVDSFKYEP [YLR335W/NUP2] | 2.92 ± 0.074 | 3.02 ± 0.1 | 3.05 ± 0.081 | 2.62 ± 0.17 |
| SSHQRVFKLSTNLISKI [SWP82] | 2.08 ± 0.073 | 1.97 ± 0.057 | 1.52 ± 0.11 | 1.93 ± 0.048 |
| LLISLNILFSLWKLLST [YLR018C/POM34] | 1.63 ± 0.071 | 1.25 ± 0.077 | 1.22 ± 0.21 | 1.18 ± 0.067 |
| RHHWQYTKASLAKERQK [SSN8] | 1.74 ± 0.072 | 1.66 ± 0.07 | 1.4 ± 0.14 | 2.14 ± 0.064 |
| ELRFPSPTPIQRITIPN [PRP28] | 2.02 ± 0.093 | 2.19 ± 0.071 | 1.85 ± 0.081 | 2.06 ± 0.058 |
| VRVQFQFTGFLLHEMTQ [GRR1] | 1.83 ± 0.067 | 2.08 ± 0.061 | 1.91 ± 0.074 | 1.85 ± 0.053 |
| RHMALLVDVMTTQGGLT [RPO21] | 1.92 ± 0.15 | 2.38 ± 0.092 | 2.44 ± 0.09 |  |
| LGLCLVIQIVTGIFMAM [COB] | 1.36 ± 0.053 | 1.2 ± 0.045 | 1.23 ± 0.13 | 1.42 ± 0.045 |
| IVPGTYIQERNPTQRPQ [RPS10A] | 3.01 ± 0.054 | 3.08 ± 0.043 | 3.05 ± 0.037 | 3.12 ± 0.034 |
| SFLGYLRYVKQIEGPFL [ISW2] | 2.28 ± 0.061 | 2.42 ± 0.046 | 2.45 ± 0.053 | 2.4 ± 0.04 |
| QALQMKAMDIPIGRHEE [SWP82] | 2.86 ± 0.22 | 2.29 ± 0.13 |  | 2.08 ± 0.062 |
| HFENAKVIDLDTKLKAH [YIL149C/MLP2] | 2.62 ± 0.073 | 2.73 ± 0.086 | 2.09 ± 0.11 | 2.48 ± 0.073 |
| VEGHLFEIIDEASKKSA [FAS1] | 3.26 ± 0.17 | 3.5 ± 0.15 | 3.22 ± 0.06 | 3.33 ± 0.073 |
| LRSKTSAGRIESNNPSH [SIR4] | 2.56 ± 0.1 | 2.48 ± 0.081 | 2.55 ± 0.18 | 2.79 ± 0.098 |
| LRRRTASHNVRRIPKRM [POP1] | 2.98 ± 0.065 | 3.02 ± 0.062 | 2.85 ± 0.052 | 2.75 ± 0.042 |
